The record followed here is PMC11488486.

For experiment [1], the target named is UCHL1, wild type (from pGEX-6p-1) (human) (UniProt P09936).
The target in experiment [2] is UCHL1 R178Q (from pGEX-6p-1) (human) (UniProt P09936).

For Ub-Rhodamine, the KM of UCHL1-catalyzed hydrolysis of Ub-Rho (Michaelis-Menten kinetics) in experiment [1] is 0.03 µM; in experiment [2], 0.17 µM.
